Source: patent publication US20110288485A1, “MICRONEEDLE DEVICE” (HISAMITSU PHARMACEUTICAL CO., INC., priority 2008, published 2011)

Experiments:
[1] = In vitro human skin penetration test by microneedles (parathyroid hormone); assay type: in vitro ADME; details: microneedles height 500 μm compared with 300 μm; 40 μg hPTH coated; attachment six hours
Excerpt: (§1) Two types of microneedles made of a polylactic acid that differ in the length of the needle part (h: 300 μm and 500 μm) were used. The shape of either of these two types of microneedles was square pyramid, and the density of the microneedle was 400 needles/cm^2. Also, the area of either one of microneedle devices was 1 cm^2.
A coating liquid prepared according to the below-described technique (30% human parathyroid hormone hPTH (1-34) (the product of Sichuan Unibiochem Co., Ltd.), 7.5% pullulan, and 0.1% Tween 20) was coated on a microneedle device similarly to Example 1, and after piercing excised human skin with this microneedle device by finger pressing (2 kg/patch), the device and the skin were placed on an acrylic cell for sampling over time. As a receptor layer, physiological saline containing 0.01% benzalkonium chloride was used, and 1 mL of a receptor liquid collected per sampling time was measured by a gamma counter to calculate a PTH concentration. It is to be noted that a period of attachment of the microneedle device was set at six hours. The results of the sampling are as shown in the graph in FIG. 5.
(2) After coating microneedles with the coating solution prepared in (1), radiation of each pharmaceutical preparation was counted using a NaI counter to estimate the content of PTH coated on the needle part. […]

[2] = Hairless rat in vivo absorption test by microneedles (parathyroid hormone)
Excerpt: as §1
Firstly, the abdomen of a hairless rat was pierced with a microneedle device in which tips of the needles were coated with a similar coating liquid to Example 2 (30% human parathyroid hormone hPTH (1-34) (the product of Sichuan Unibiochem Co., Ltd.), 7.5% pullulan, and 0.1% Tween 20) by a similar technique to Example 1 by hand pushing, and the microneedle device was covered with a foam tape (the product of 3M Company) and left attached for six hours. Then, blood was collected over time (amount of blood collected 200 μL/times) to measure the serum hPTH concentration with a Rat PTH IRMA kit (the product of Immutopics International). Also, in a subcutaneous administration group, 0.2 mg/mL hPTH in physiological saline was prepared, 40 μL of which was subcutaneously administered to the back of a hairless rat, and the PTH concentration was similarly measured.

[3] = PTH storage method: acceleration stability test of the content, form of package and stabilizing agent (Example 6); assay type: physicochemical
Description: PTH was prepared at 40 mg/mL with water for injection, which was then dispensed to serve as a drug solution. It was further diluted to 20 mg/mL with water for injection before experiment, 20 μL of which was added dropwise to a microneedle base (400 μg/patch), which served as a medicinal unit.
(§2) A medicinal unit sample for screening of a stabilizing agent was fully dried and enclosed in an aluminum packing material, sandwiched between silicon treated liners, with OZO (OZO kagakugiken Co., Ltd.). It was then stored at 25° C., 40° C., 50° C., and 60° C. to perform an acceleration test to conduct a stability test of the content over time (n=3). The content was returned to room temperature, and then extracted with 4 mL of an extraction liquid, followed by measurement by HPLC.
Extraction liquid: a 0.01% benzalkonium chloride solution or 2% TMTDAB, 1% sodium chloride, and 10 mM acetic acid buffer
Detector: an ultraviolet absorptiometer (measurement wavelength: 220 nm)
Column temperature: 25° C.

[4] = Study on the addition amount of sucrose to PTH, stability of content (Example 7); assay type: physicochemical
Description: as §2
Other than this, the study was conducted in the same manner as the aforementioned Examples.

[5] = Study on drying time of a sucrose additive to PTH, stability of content (Example 8); assay type: physicochemical; details: 60° C.
Description: as §2
Using this solution, a drug solution unit was produced, and preservation qualities resulting from various drying times were examined under a nitrogen stream.

[6] = PTH/pullulan coating liquid: solubility evaluation and amount of PTH coated on microneedles (Example 9); assay type: physicochemical; details: 30% or 40% PTH solution with small amount of surfactant (Tween 20)
Description: In order to optimize a ratio between PTH (1-34) (the product of Sichuan Unibiochem Co., Ltd.) and a coating carrier, which is a water-soluble high molecular weight polymer, a study was conducted using PTH and a coating carrier (pullulan). […] The concentration of pullulan was adjusted based on the viscosity of the solution at the time of dissolving, and the range of the concentration of pullulan was set to 0 to 30% (w/w). It is to be noted that, as the pullulan, one recited in Japanese Pharmacopeia (the product of Hayashibara Biochemical Labs., Inc.) was used. Further, in order to increase the adhesiveness to the needles, a study was also conducted for the case in which a surfactant (Tween20, 0.1%) was added as shown in Table 7.
Evaluation of solubility of PTH was performed after adjusting each solution, and a coating liquid capable of adjusting a uniform solution was subjected to an operation for coating of microneedles made of a polylactic acid. Following the aforementioned method as a coating method, coating was performed only on the tip part of the needles with the use of a metal mask (only the needle part was coated using a metal mask having a diameter of the aperture: 220 μm and thickness: 100 μm).

human parathyroid hormone hPTH (1-34)
skin penetration property [1]: efficient drug delivery is made possible | initial rise in the blood concentration, reaching maximum blood concentration ([2]; microneedle device vs subcutaneous administration): more rapidly reached than subcutaneous administration | amount of absorption (serum hPTH) ([2]; microneedle length 300 and 500 μm, attached six hours): increases in the amount of absorption dependent on the length of the microneedles | residual ratio (%) relative to the initial value ([3]; 40° C., 1W): 100.22 ± 0.53% | residual ratio (%) relative to the initial value ([3]; 40° C., 2W): 97.64 ± 0.72% | residual ratio (%) relative to the initial value ([3]; 40° C., 4W): 97.02 ± 0.65% | residual ratio (%) relative to the initial value ([3]; 50° C., 1W): 94.65 ± 1.55% | residual ratio (%) relative to the initial value ([3]; 50° C., 2W): 94.10 ± 2.25% | residual ratio (%) relative to the initial value ([3]; 50° C., 4W): 84.26 ± 1.19% | residual ratio (%) relative to the initial value ([3]; 60° C., 1W): 89.50 ± 1.11% | residual ratio (%) relative to the initial value ([3]; 60° C., 2W): 88.22 ± 0.82% | residual ratio (%) relative to the initial value ([3]; 60° C., 4W): 71.80 ± 1.94% | residual ratio (%) relative to the initial value ([4]; 40° C., 1W): 83.26 ± 0.57% | residual ratio (%) relative to the initial value ([4]; 40° C., 4W): 92.82 ± 0.74% | residual ratio (%) relative to the initial value ([4]; 50° C., 4W): 80.83 ± 4.57% | residual ratio (%) relative to the initial value ([4]; 60° C., 4W): 76.55 ± 3.95% | residual ratio (%) relative to the initial value ([5]; drying time 15 minutes, 1W): 85.35 ± 0.64% | residual ratio (%) relative to the initial value ([5]; drying time 15 minutes, 4W): 75.43 ± 1.69% | residual ratio (%) relative to the initial value ([5]; drying time 30 minutes, 1W): 85.53 ± 0.49% | residual ratio (%) relative to the initial value ([5]; drying time 30 minutes, 4W): 73.10 ± 0.36% | residual ratio (%) relative to the initial value ([5]; drying time 1 hour, 1W): 84.62 ± 0.72% | residual ratio (%) relative to the initial value ([5]; drying time 1 hour, 4W): 75.56 ± 1.69% | residual ratio (%) relative to the initial value ([5]; drying time 2 hours, 1W): 86.01 ± 1.07% | residual ratio (%) relative to the initial value ([5]; drying time 2 hours, 4W): 73.93 ± 1.41% | residual ratio (%) relative to the initial value ([5]; drying time 16 hours, 1W): 87.08 ± 0.72% | residual ratio (%) relative to the initial value ([5]; drying time 16 hours, 4W): 72.71 ± 2.01% | amount of PTH attached by single coating operation [6]: ≥ 20 µg
